# Data: publication PMC11461821, “Structure of a Rhs effector clade domain provides mechanistic insights into type VI secretion system toxin delivery” (Nature Communications, 2024)
# B1: Tse15 N-terminal clade domain (residues 1-334) (domain or fragment)
# chain: MAKENTQQKEIKRQPAVELAVFNLNSVTDVADLQMIASQVQLYLQVCGNTTLEQIKSKANITTVANIFALTGSVLDLMLYATDKKTGDAAVQRGALLAANLIGLFSEPNNEAHARMALRPMFGLMAECLYRENGKIKETDIKRLGLHLNAMIAGDLENFLKETQAKLSSLLISATTLGVTILQSMATPATGINAGITTAAGASAEKRDPKLKFTNWAVPLIDLLGKPSQANLTPKIQPNITSRLQQEATQAIAALSQTLQQQANAGQKYTLAWLLQETLKAIQALENKGNASVPINQTGEYERHTKGDTLEFVSLQADALNAPPCEGADSQSGK
# notes: Tse15, A. baumannii AB307-0294, N-terminal clade domain, residues 1-334; Residues 14-333 are modelled in the structure; also called N-terminal clade-specific domain; not shown: StrepTag-II, N-terminal, kept
# B2: Tse15 toxic C-terminal domain (residues 1396-1590) (domain or fragment)
# chain: NSFNYGEMFGIPASAQSGLAYQGQRNYECYAETGELCKIKVPPLFDYVACSGGGLGIGVGFVKNQWTGEYYISGSKDSLLIPVAKSVAQNKQFSAKDLAGASCVGGNIHNIPSYTKTTMTMGEITNEFVSGASVTVGGGAYGAVANVVVPLVSKSSPVKGTWASELGVGTPGFNVGVSGTVSVDTILDAVKPSKK
# notes: Tse15, A. baumannii AB307-0294, toxic CTD, residues 1396-1590; also called CTD; toxin domain; not shown: His6, C-terminal, kept
# How the values were obtained:
# [1] = biological target: T1, Tse15 central Rhs domain (residues 335-1395) (Acinetobacter baumannii (strain …, UniProt A0A5K6CSR3 335-1395)); experiment: cryo-EM structure; single particle cryo-EM of purified protein, 3 mg/mL, UltrAuFoil grids; Tse15 at 200 kV (Talos Arctica), Tse15NN at 300 kV (Titan Krios); settings: both partners purified
# T1 construct: Tse15, A. baumannii AB307-0294, central Rhs domain, residues 335-1395; also called Rhs cage; β-cocoon
# T1 sequence: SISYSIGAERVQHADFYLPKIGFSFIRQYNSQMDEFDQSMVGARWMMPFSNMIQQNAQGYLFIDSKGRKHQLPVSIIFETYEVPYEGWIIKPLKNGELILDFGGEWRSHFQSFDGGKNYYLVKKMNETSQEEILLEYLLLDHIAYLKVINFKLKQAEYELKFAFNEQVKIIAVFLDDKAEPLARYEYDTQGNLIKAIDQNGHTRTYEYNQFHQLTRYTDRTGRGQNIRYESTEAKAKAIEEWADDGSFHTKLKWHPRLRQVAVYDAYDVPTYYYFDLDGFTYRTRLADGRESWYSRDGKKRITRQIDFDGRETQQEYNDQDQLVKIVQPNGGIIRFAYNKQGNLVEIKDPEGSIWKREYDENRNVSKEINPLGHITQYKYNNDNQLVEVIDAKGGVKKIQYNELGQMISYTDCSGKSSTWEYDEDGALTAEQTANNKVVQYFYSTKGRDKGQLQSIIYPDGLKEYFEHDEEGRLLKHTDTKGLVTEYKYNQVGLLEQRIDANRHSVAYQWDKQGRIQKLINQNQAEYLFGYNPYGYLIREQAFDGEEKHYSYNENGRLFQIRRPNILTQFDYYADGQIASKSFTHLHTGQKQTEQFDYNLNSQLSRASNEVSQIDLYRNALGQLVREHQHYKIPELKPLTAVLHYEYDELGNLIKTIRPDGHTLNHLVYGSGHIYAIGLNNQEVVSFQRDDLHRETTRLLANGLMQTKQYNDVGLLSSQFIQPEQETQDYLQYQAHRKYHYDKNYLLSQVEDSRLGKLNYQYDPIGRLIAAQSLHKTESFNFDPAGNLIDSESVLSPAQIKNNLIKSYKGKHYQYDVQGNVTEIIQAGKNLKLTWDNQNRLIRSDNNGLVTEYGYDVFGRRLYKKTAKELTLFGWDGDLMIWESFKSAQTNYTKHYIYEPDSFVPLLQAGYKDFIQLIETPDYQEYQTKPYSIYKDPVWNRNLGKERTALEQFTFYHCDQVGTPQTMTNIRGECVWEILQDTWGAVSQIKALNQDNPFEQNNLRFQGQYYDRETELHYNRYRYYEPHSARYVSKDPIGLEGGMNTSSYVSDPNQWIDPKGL
# [2] = biological target: B1; experiment: pull-down + SEC; nickel affinity (HisTrap HP) from E. coli lysate by the His tag that only the CTD carries, then analytical size-exclusion (Superdex200 10/300 GL Increase, 50 mM Hepes pH 8.0, 0.3 M NaCl); fragments identified by SDS-PAGE, Western blot, peptide fingerprinting and N-terminal sequencing; settings: partners not purified
# [3] = biological target: T1, Tse15 central Rhs domain (residues …); experiment: as above; settings: partners not purified
binder,measurement,setting,value
B1,binding result,[1],binds
B2,binding result,[2],binds
same,binding result,[3],binds
